The source of these data is paper PMC10397247.

The target in one assay is T1, 4H486-AA.
T1 chain: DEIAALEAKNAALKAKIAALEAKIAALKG
Briefly: two-hybrid library CCmax.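 Also: natural log of median RNA to DNA barcode read ratio; higher means stronger binding.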 As to conditions: mean of both orientations.

In another assay the target is T2, 4H895-AA.
T2 chain: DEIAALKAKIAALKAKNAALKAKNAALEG
Kind of assay: two-hybrid library CCmax.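 Also: natural log of median RNA to DNA barcode read ratio; higher means stronger binding.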 Particulars: mean of both orientations.

Another assay addresses T3, P2-AA-1HGe-H.
T3 chain: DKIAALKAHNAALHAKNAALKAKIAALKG
Kind of assay: two-hybrid library CCmax.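 Also: natural log of median RNA to DNA barcode read ratio; higher means stronger binding.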 As to conditions: mean of both orientations.

The next assay deals with T4, P2-AA-1HGe-D.
T4 chain: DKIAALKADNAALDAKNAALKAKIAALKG
Briefly: two-hybrid library CCmax.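 Also: natural log of median RNA to DNA barcode read ratio; higher means stronger binding.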 Particulars: mean of both orientations.

The target in another assay is 4H_GCN4. Briefly: two-hybrid library CCmax.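 Also: natural log of median RNA to DNA barcode read ratio; higher means stronger binding.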
4H_GCN4, sequence (chain, as listed by the source): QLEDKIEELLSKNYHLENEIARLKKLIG
The target of a further assay is T5, P2-AA-1HGe-Q.
T5 chain: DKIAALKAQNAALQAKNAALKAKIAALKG
Kind of assay: two-hybrid library CCmax.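 Also: natural log of median RNA to DNA barcode read ratio; higher means stronger binding.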 As to conditions: mean of both orientations.

A further assay addresses T6, 4H535-AA.
T6 chain: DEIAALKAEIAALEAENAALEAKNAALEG
Kind of assay: two-hybrid library CCmax. Particulars: mean of both orientations.

The target in a further assay is T7, 4H465-AA.
T7 chain: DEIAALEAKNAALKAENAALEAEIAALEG
Kind of assay: two-hybrid library CCmax.

The next assay addresses T8, 4H_APH.
T8 chain: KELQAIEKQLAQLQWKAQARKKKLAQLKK
Kind of assay: two-hybrid library CCmax.

The target in another assay is T9, P2-AA-1HGe-T.
T9 chain: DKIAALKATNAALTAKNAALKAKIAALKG
Briefly: two-hybrid library CCmax. Particulars: mean of both orientations.

The target of the next assay is T10, 4H58-AA.
T10 chain: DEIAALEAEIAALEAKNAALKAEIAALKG
Briefly: two-hybrid library CCmax. Particulars: mean of both orientations.

The target of the next assay is T11, P2-AA-1HGe-M.
T11 chain: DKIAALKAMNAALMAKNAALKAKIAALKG
Kind of assay: two-hybrid library CCmax. Particulars: mean of both orientations.

The target in a further assay is T12, P2-AA.
T12 chain: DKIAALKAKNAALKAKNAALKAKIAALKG
Kind of assay: two-hybrid library CCmax. As to conditions: mean of both orientations.

For the next assay, the target named is GCN2_T. Kind of assay: two-hybrid library CCmax.
Another assay addresses T13, 4H_BCR.
T13 chain: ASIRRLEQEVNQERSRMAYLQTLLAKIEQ
Kind of assay: two-hybrid library CCmax. Particulars: mean of both orientations.

The target of another assay is T14, P2-AA-1HGe-A.
T14 chain: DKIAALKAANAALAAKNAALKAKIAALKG
Briefly: two-hybrid library CCmax. As to conditions: mean of both orientations.

The target of another assay is T15, P8bHq.
T15 chain: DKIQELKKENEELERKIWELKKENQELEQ
Briefly: two-hybrid library CCNG1.

A further assay concerns the target T16, P1bHq.
T16 chain: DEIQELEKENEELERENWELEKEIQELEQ
Briefly: two-hybrid library CCNG1.

The next assay has as its target T17, P5bHq.
T17 chain: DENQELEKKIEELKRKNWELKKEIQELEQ
Kind of assay: two-hybrid library CCNG1.

In the next assay the target is T18, P9bHq.
T18 chain: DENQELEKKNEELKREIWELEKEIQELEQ
Briefly: two-hybrid library CCNG1.

For the next assay, the target named is T19, P6bHq.
T19 chain: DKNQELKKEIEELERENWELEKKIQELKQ
Briefly: two-hybrid library CCNG1.

The target in the next assay is T20, P7bHq.
T20 chain: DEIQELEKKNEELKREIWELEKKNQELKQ
Kind of assay: two-hybrid library CCNG1.

The next assay deals with T21, P4bHq.
T21 chain: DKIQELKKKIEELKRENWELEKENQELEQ
Kind of assay: two-hybrid library CCNG1.

The next assay concerns the target T22, P12bHq.
T22 chain: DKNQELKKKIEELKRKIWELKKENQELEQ
Kind of assay: two-hybrid library CCNG1.

For a further assay, the target named is T23, P2bHq.
T23 chain: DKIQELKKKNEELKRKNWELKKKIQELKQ
Briefly: two-hybrid library CCNG1.

In another assay the target is T24, P11bHq.
T24 chain: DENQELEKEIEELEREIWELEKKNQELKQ
Briefly: two-hybrid library CCNG1.

A further assay addresses T25, P3bHq.
T25 chain: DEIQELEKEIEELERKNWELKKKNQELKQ
Kind of assay: two-hybrid library CCNG1.

In the next assay the target is T26, 4H3817-bH.
T26 chain: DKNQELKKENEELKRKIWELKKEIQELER
Kind of assay: two-hybrid library CCNG1.

The target of a further assay is T27, 4H3129-bH.
T27 chain: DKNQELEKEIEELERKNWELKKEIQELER
Briefly: two-hybrid library CCNG1.

The target of another assay is T28, 4H1449-bH.
T28 chain: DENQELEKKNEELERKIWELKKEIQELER
Kind of assay: two-hybrid library CCNG1.

A further assay deals with T29, 4H1985-bH.
T29 chain: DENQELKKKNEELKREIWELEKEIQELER
Kind of assay: two-hybrid library CCNG1.

Another assay deals with T30, 4H932-bN.
T30 chain: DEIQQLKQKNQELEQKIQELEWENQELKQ
Briefly: two-hybrid library CCNG1.

A further assay has as its target T31, 4H3974-bH.
T31 chain: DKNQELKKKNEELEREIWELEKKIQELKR
Briefly: two-hybrid library CCNG1.

For another assay, the target named is T32, 4H3414-bH.
T32 chain: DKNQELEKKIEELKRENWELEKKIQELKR
Briefly: two-hybrid library CCNG1.

Another assay concerns the target T33, 4H3638-bH.
T33 chain: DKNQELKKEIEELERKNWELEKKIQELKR
Kind of assay: two-hybrid library CCNG1.

The next assay concerns the target T34, 4H3631-bH.
T34 chain: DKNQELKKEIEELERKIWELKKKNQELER
Briefly: two-hybrid library CCNG1.

The target of another assay is T35, 4H1710-bH.
T35 chain: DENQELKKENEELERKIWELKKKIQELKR
Briefly: two-hybrid library CCNG1.

In another assay the target is T36, 4H619-bH.
T36 chain: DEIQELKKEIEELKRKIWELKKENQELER
Briefly: two-hybrid library CCNG1.

A further assay deals with T37, 4H906-bH.
T37 chain: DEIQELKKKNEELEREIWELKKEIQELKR
Kind of assay: two-hybrid library CCNG1.

In a further assay the target is T38, 4H1629-bH.
T38 chain: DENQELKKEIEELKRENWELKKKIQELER
Kind of assay: two-hybrid library CCNG1.

For a further assay, the target named is T39, 4H570-bH.
T39 chain: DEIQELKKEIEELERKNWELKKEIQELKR
Kind of assay: two-hybrid library CCNG1.

A further assay deals with T40, 4H1393-bH.
T40 chain: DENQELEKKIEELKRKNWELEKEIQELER
Kind of assay: two-hybrid library CCNG1.

For another assay, the target named is T41, 4H1804-bH.
T41 chain: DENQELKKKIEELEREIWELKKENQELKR
Briefly: two-hybrid library CCNG1.

The next assay concerns the target T42, 4H1359-bH.
T42 chain: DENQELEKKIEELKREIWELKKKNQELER
Briefly: two-hybrid library CCNG1.

The target of the next assay is T43, 4H3172-bH.
T43 chain: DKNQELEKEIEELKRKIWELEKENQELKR
Briefly: two-hybrid library CCNG1.

A further assay deals with T44, 4H584-bH.
T44 chain: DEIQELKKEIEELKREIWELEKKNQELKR
Briefly: two-hybrid library CCNG1.

Another assay has as its target T45, 4H850-bH.
T45 chain: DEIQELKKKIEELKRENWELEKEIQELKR
Briefly: two-hybrid library CCNG1.

A further assay concerns the target T46, 4H2619-bN.
T46 chain: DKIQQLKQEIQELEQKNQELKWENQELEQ
Kind of assay: two-hybrid library CCNG1.

The target of another assay is T47, 4H1072-bN.
T47 chain: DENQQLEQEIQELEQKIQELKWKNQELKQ
Kind of assay: two-hybrid library CCNG1.

Another assay addresses T48, 4H363-bN.
T48 chain: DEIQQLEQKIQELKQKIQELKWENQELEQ
Briefly: two-hybrid library CCNG1.

The target in the next assay is T49, 4H3601-bN.
T49 chain: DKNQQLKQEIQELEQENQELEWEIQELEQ
Briefly: two-hybrid library CCNG1.

A further assay has as its target T50, 4H1193-bN.
T50 chain: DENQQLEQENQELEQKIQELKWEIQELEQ
Briefly: two-hybrid library CCNG1.

For the next assay, the target named is T51, 4H2568-bN.
T51 chain: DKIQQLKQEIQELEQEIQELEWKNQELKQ
Briefly: two-hybrid library CCNG1.

A further assay has as its target T52, 4H3907-bN.
T52 chain: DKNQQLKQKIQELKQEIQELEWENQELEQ
Kind of assay: two-hybrid library CCNG1.

The next assay has as its target T53, 4H1406-bN.
T53 chain: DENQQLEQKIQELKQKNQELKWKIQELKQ
Briefly: two-hybrid library CCNG1.

For another assay, the target named is T54, 4H3592-bN.
T54 chain: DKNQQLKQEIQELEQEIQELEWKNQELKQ
Kind of assay: two-hybrid library CCNG1.

In the next assay the target is T55, 4H470-bN.
T55 chain: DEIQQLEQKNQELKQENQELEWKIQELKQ
Kind of assay: two-hybrid library CCNG1.

The next assay concerns the target T56, 4H344-bN.
T56 chain: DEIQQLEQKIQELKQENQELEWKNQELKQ
Kind of assay: two-hybrid library CCNG1.

The next assay concerns the target T57, 4H4038-bN.
T57 chain: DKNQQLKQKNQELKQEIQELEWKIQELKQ
Briefly: two-hybrid library CCNG1.

A further assay deals with T58, 4H3961-bN.
T58 chain: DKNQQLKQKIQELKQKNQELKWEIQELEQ
Briefly: two-hybrid library CCNG1.

The target of the next assay is T59, 4H1387-bN.
T59 chain: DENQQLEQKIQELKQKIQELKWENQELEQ
Kind of assay: two-hybrid library CCNG1.

The next assay addresses T60, 4H2745-bN.
T60 chain: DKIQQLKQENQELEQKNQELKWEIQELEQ
Kind of assay: two-hybrid library CCNG1.

B1: 4H465-AA (peptide)
chain: DEIAALEAKNAALKAENAALEAEIAALEG
For the molecule B1, the interaction score with 4H486-AA is -1.47; in the assay with 4H895-AA, -1.13; in the assay with P2-AA-1HGe-H it was 1.53; in the assay with P2-AA-1HGe-D, 1.36; with 4H_GCN4, -2.34; in the assay with P2-AA-1HGe-Q it was 1.82. For the same molecule, the interaction score with 4H535-AA is -1.58; with 4H465-AA, -1.82; in the assay with 4H_APH, -1.84; in the assay with P2-AA-1HGe-T it was 2.11; with 4H58-AA, 0.877; with P2-AA-1HGe-M it was 1.47. Besides, the interaction score with P2-AA was 1.61; in the assay with GCN2_T it was -1.97; with 4H_BCR, -1.2; in the assay with P2-AA-1HGe-A, 1.85.

B2: P11bHq (peptide)
chain: DENQELEKEIEELEREIWELEKKNQELKQ
Take B2: the interaction score in the assay with P8bHq is 0.862; with P1bHq, 0.41; in the assay with P5bHq it was 0.352; with P9bHq it was 0.854; with P6bHq it was 0.74; with P7bHq, -1.22. In addition, the interaction score in the assay with P4bHq is 1.65; with P12bHq, 1.78; in the assay with P2bHq, 0.67; with P11bHq, 1.25; with P3bHq it was 1.18.

B3: 4H1359-bH (peptide)
chain: DENQELEKKIEELKREIWELKKKNQELER
For the molecule B3, the interaction score was 0.0285 with 4H3817-bH; -0.249 in the assay with 4H3129-bH; 0.00778 with 4H1449-bH; 0.67 with 4H1985-bH; -1.75 in the assay with 4H932-bN; 0.477 with 4H3974-bH. Besides, the interaction score in the assay with 4H3414-bH is -0.291; in the assay with 4H3638-bH, -0.989; in the assay with 4H3631-bH, 0.884; in the assay with 4H1710-bH, -0.389; in the assay with 4H619-bH it was -0.165; with 4H906-bH it was 0.0222. The interaction score with 4H1629-bH is -0.6; in the assay with 4H570-bH, -1.09; with 4H1393-bH it was -0.756; with 4H1804-bH, 0.574; with 4H1359-bH, 0.989; with 4H3172-bH it was -0.46. In addition, the figures for the interaction score in the assay with 4H584-bH and in the assay with 4H850-bH were 0.303 and -0.848, respectively.

B4: 4H1072-bN (peptide)
chain: DENQQLEQEIQELEQKIQELKWKNQELKQ
Turning to B4, the interaction score with 4H2619-bN is 0.775; with 4H1072-bN it was 0.692; with 4H363-bN, 1.58; with 4H3601-bN, -0.0449; with 4H1193-bN, -0.235; with 4H2568-bN, -0.182. Moreover, the interaction score in the assay with 4H3907-bN is 1.91; with 4H1406-bN, -0.693; with 4H3592-bN it was 0.235; with 4H470-bN, 0.0488; with 4H344-bN, -0.983; with 4H4038-bN it was 0.389. Also, the interaction score with 4H3961-bN was 0.231; in the assay with 4H1387-bN it was 0.922; with 4H2745-bN, -0.0701.

B5: P1-AA-1HGe-H (peptide)
chain: DEIAALEAHNAALHAENAALEAEIAALEG
As to B5, the interaction score with P2-AA-1HGe-H was 1.57; in the assay with P2-AA-1HGe-D, 1.6; with P2-AA-1HGe-Q it was 2.16; in the assay with P2-AA-1HGe-T, 1.71; with P2-AA-1HGe-M, 1.8; in the assay with P2-AA, 1.8. Moreover, in the assay with P2-AA-1HGe-A, the interaction score stood at 2.34.
